The record followed here is patent US20170204182A1.

B1: CD81K04 HC GG-05-hVH_1_18 / LC JA_GG-10-hVK_4_1 (antibody, V domains shown)
VH: QVQLVQSGAEVKKPGASVKVSCKASGYTFSSSWMNWVRQAPGQGLEWMGRIYSGDGDAIYAQKLQGRVTMTTDTSTSTAYMELRSLRSDDTAVYYCAREGKTGDLLLRSWGQGTLVTVSS
VL: DIVMTQSPDSLAVSLGERATINCRASKSVSTSIYSYMHWYQQKPGQPPKLLIKYASYLESGVPDRFSGSGSGTDFTLTISSLQAEDVAVYYCEHSREFPFTFGQGTKLEIK
B2: CD81K04 HC JA_GG-14-hVH_1_69 / LC GG-04-hVK_4_1 (antibody, V domains shown)
VH: QVQLVQSGAEVKKPGSSVKVSCKASGYTFSSSWMNWVRQAPGQGLEWMGRIYSGDGDAIYNGKFKGKATITADESTSTAYMELSSLRSEDTAVYYCAREGKTGDLLLRSWGQGTLVTVSS
VL: DIVMTQSPDSLAVSLGERATINCKSSKSVSTSIYSYLAWYQQKPGQPPKLLIYYASTRESGVPDRFSGSGSGTDFTLTISSLQAEDVAVYYCQHSREFPYTFGQGTKLEIK
B3: CD81K04 HC JA_GG-14-hVH_1_69 / LC JA_GG-07-hVK_7_3 (antibody, V domains shown)
VH: QVQLVQSGAEVKKPGSSVKVSCKASGYTFSSSWMNWVRQAPGQGLEWMGRIYSGDGDAIYNGKFKGKATITADESTSTAYMELSSLRSEDTAVYYCAREGKTGDLLLRSWGQGTLVTVSS
VL: DIVLTQSPASLAVSPGQRATITCRASKSVSTSIYSYMHWYQQKPGQPPKLLIKYASNKDTGVPARFSGSGSGTDFTLTINPVEANDAANYYCLHSREFPYTFGQGTKLEIK
B4: CD81K13 HC 04-hVH_1_69 / LC 05-hVK_1_39 (antibody, V domains shown)
VH: EVQLVESGGGLVQPGRSLRLSCTASGFNFKDSYLHWVRQAPGQGLEWMGRIDTGNGNVKFDPKFQGRVTITADESTSTAYMELSSLRSEDTAVYYCVPYGYGFHSWGQGTLVTVSS
VL: DIQMTQSPSSLSASVGDRVTITCRASENIYRTLAWYQQKPGKAPKLLIYAATTLASGVPSRFSGSGSGTDFTLTISSLQPEDFATYYCQHFWGTPWTFGQGTKVEIK
B5: CD81K13 HC 04-hVH_1_69 / LC 07-hVK_1_27 (antibody, V domains shown)
VH: EVQLVESGGGLVQPGRSLRLSCTASGFNFKDSYLHWVRQAPGQGLEWMGRIDTGNGNVKFDPKFQGRVTITADESTSTAYMELSSLRSEDTAVYYCVPYGYGFHSWGQGTLVTVSS
VL: DIQMTQSPSSLSASVGDRVTITCRASENIYRTLAWYQQKPGKVPKLLIYAATTLASGVPSRFSGSGSGTDFTLTISSLQPEDVGTYYCQKFWGTPWTFGQGTKVEIK
B6: CD81K13 HC 04-hVH_1_69 / LC 5b-hVK_1_39 (antibody, V domains shown)
VH: EVQLVESGGGLVQPGRSLRLSCTASGFNFKDSYLHWVRQAPGQGLEWMGRIDTGNGNVKFDPKFQGRVTITADESTSTAYMELSSLRSEDTAVYYCVPYGYGFHSWGQGTLVTVSS
VL: DIQMTQSPSSLSASVGDRVTITCRASENIYRTLAWYQQKPGKAPKLLIYGATTLADGVPSRFSGSGSGTDFTLTISSLQPEDFATYYCQHFWGTPWTFGQGTKVEIK
B7: CD81K13 HC 04-hVH_1_69 / LC 5b-hVK_1_39-GA (antibody, V domains shown)
VH: EVQLVESGGGLVQPGRSLRLSCTASGFNFKDSYLHWVRQAPGQGLEWMGRIDTGNGNVKFDPKFQGRVTITADESTSTAYMELSSLRSEDTAVYYCVPYGYGFHSWGQGTLVTVSS
VL: DIQMTQSPSSLSASVGDRVTITCRASENIYRTLAWYQQKPGKAPKLLIYGATTLADGVPSRFSGSGSGTDFTLTISSLQPEDFATYYCQHFWGTPWTFGQGTKVEIK
B8: CD81K13 HC 04-hVH_1_69 / LC 06-hVK_1_39 (antibody, V domains shown)
VH: EVQLVESGGGLVQPGRSLRLSCTASGFNFKDSYLHWVRQAPGQGLEWMGRIDTGNGNVKFDPKFQGRVTITADESTSTAYMELSSLRSEDTAVYYCVPYGYGFHSWGQGTLVTVSS
VL: DIQMTQSPSSLSASVGDRVTITCRASENIYRTLAWYQQKPGKAPKLLIYAATTLASGVPSRFSGSGSGTDFTLTISSLQPEDFGTYYCQHFWGTPWTFGQGTKVEIK

The assay concerns the target T1, CD81 (UniProt P60033).
T1 sequence (looked up): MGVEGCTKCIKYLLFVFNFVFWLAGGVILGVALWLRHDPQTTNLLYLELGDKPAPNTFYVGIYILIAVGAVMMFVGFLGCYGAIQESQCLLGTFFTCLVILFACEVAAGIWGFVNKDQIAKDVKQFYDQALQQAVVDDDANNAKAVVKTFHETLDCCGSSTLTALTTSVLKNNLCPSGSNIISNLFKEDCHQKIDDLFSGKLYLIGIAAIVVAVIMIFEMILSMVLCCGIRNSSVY
In words: cell ELISA.
In the case of B1, the ELISA absorbance is 0.841.

On to B2, for which the ELISA absorbance stood at 0.107.

Turning to B3, the ELISA absorbance was 0.107.

In turn, B4 gave an ELISA absorbance of 0.776.

In turn, B5 returned an ELISA absorbance of 0.085.

For B6, the ELISA absorbance was 0.428.

As for B7, the ELISA absorbance was found to be 0.403.

As to B8, the ELISA absorbance was determined as 0.386.
